Laboratory results: patent US10752921B2, “Enzymes and methods for styrene synthesis” (Phytogene, Inc., priority 2012, dated 2020)

Tests used:
styrene production [1] = assay: Styrene production by FDC1 mutants from tCA (colorimetric screening, confirmed by HPLC); type: cell-based; settings: E. coli cells, tCA 1 g/L, 30° C. for 4 hours
Protocol: Saturation mutagenesis allows the change of one amino acid to 19 other alternative amino acid residues. […] The codon NNK has 32-fold degeneracy and encodes all 20 amino acids without rare codons. The QuikChange PCR products were examined by agarose gel electrophoresis and then 15 μl of PCR products were digested with 1 μl Dpnl (New England Biolabs) at 37° C. for 4 hours to remove the template plasmid. Aliquots of (2 μl) digestive products were transformed into BL21-Gold (DE3) competent cells (STRATAgene, CA) and inoculated on Luria-Bertani (LB) agar plates containing kanamycin. The quality of the library by DNA sequencing was confirmed. The library covers 90% of mutagenesis (17 mutants out of 19). To cover 100% (19 out of 19 mutant), we screened 150 mutants for each site.
The transformants (Example II.2) were inoculated in 96-well plates (NUNC, Roskilde, Denmark) containing 100 μl LB broth per well and incubated at 37° C., overnight. The cultures were then mixed with equal amount of 50% glycerol and stored at −80° C. as the master plate. An aliquot of 10 μl culture was inoculated in 2 ml deep-well plates (USA scientific) with 1 ml TB broth per well and incubated at 37° C. until the OD600 reached 1.0. The cultures were then induced by 0.2 mM IPTG and incubated at 18° C. for 20 hours with shaking at 250 rpm.
Cells were harvested and suspended with 0.25 ml PBS buffer at pH 7.0 and the substrate (tCA) was added at a final concentration of 1 g/L. The culture was incubated at 30° C. for 4 hours and the volatile product styrene was collected by using 96 well STRATA-X® reversed phase plate containing 10 mg polymer based resin (Phenomenex) on top of the culture plate (FIG. 19). To avoid styrene vapor diffusion, 96-square well silicone sealing mats with pre-slit were used between 96-well culture plate and 96 well STRATA-X® reversed phase plate. The product was collected by 200 μl propanol for each well and the amount of product was measured by colorimetric method.
Various chemicals were tested as an indicator for styrene detection, including NBP (4-nitrobenzyl-pyridine) as a preferred indicator. Styrene was mixed with cytochrome P450 BM-3 in 50 mM phosphate buffer pH 8.0. The styrene oxidation reaction was started by adding 0.2 mM NADPH, and the reaction mixture was incubated at room temperature for 5 minutes with shaking. The NBP solution was added to the mixture and incubated at room temperature for further 5 minutes with shaking which gives white precipitate. The tube or plate containing reaction mixtures were heated at 70° C. for 30 minutes and chilled on ice for 5 minutes. After adding Dimethylformamide (150 μl) and 25 μl of 1M K2CO3, the reaction mixture gave blue color that can be measured spectrophotometrically at 600 nm immediately. The […] of NBP reacts with the oxirane ring of styrene oxide to yield a blue chromophore a blue color that can be monitored spectrophotometrically at 600 nm.
The mutants showing higher activity were confirmed by HPLC using an ACQUITY UPLC BEH C18 column (1.7-μm, 2.1×50-mm, Waters, USA). The samples were resolved in 30% acetonitrile (A) with an increasing concentration gradient of acetonitrile (B) for 1 min, 95%; then to 1 min, 30%; at a flow rate of 1 ml/min. UV absorption was monitored at 254-, 280-, and 310-nm. The changed amino acid residues in the mutants showing the higher activity were confirmed by DNA sequence.

styrene production [2] = assay: Production of styrene from trans-cinnamic acid in E. coli BL-21 (DE3); type: cell-based; settings: fed 0.1% trans-cinnamic acid, 36 hours, STRATA X column
Protocol: The nucleotides encoding FDC wild type, FDC mutant (K190E), FDC (WT)-PAL fusion protein, and FDC (K190E)-PAL fusion protein were transformed in E. coli BL-21 (DE3). The cells were grown in LB at 30° C. for overnight. The cells were harvested and washed with M9 media. The cells were inoculated to 2.0 ml M9 media with the initial OD600 at 0.3 and were cultured at 30° C. until the OD600 of the culture reached to 0.6 to 0.8. The cells were then induced with 0.2 mM IPTG for 8.0 hours at 30° C. The cells transformed with FDC wild type and FDC (K190E) were fed with 0.1% trans-cinnamic acid. The cells transformed with FDC (WT)-PAL and FDC (K190E)-PAL fusion proteins were fed with either 0.1% trans-cinnamic acid or 0.1% L-phenylalanine. The fed cells were continuously cultured for 36 hours. STRATA X column was used to collect styrene. The product was eluted from the column by butanol and the amount was quantified by HPLC.

B1: K190E (protein)
chain: MRKLNPALEFRDFIQVLKDEDDLIEITEEIDPNLEVGAIMRKAYESHLPAPLFKNLKGASKDLFSILGCPAGLRSKEKGDHGRIAHHLGLDPKTTIKEIIDYLLECKEKEPLPPITVPVSSAPCKTHILSEEKIHLQSLPTPYLHVSDGGKYLQTYGMWILQTPDKKWTNWSIARGMVVDDKHITGLVIEPQHIRQIADSWAAIGKANEIPFALCFGVPPAAILVSSMPIPEGVSESDYVGAILGESVPVVKCETNDLMVPATSEMVFEGTLSLTDTHLEGPFGEMHGYVFKSQGHPCPLYTVKAMSYRDNAILPVSNPGLCTDETHTLIGSLVATEAKELAIESGLPILDAFMPYEAQALWLILKVDLKGLQALKTTPEEFCKKVGDIYFRTKVGFIVHEIILVADDIDIFNFKEVIWAYVTRHTPVADQMAFDDVTSFPLAPFVSQSSRSKTMKGGKCVTNCIFRQQYERSFDYITCNFEKGYPKGLVDKVNENWKRYGYK
amount of styrene compared to that of wild type (in words) (styrene production [1]): significantly higher amount of styrene | styrene produced compared to wild type (styrene production [1]): 3 times | styrene produced (styrene production [2]): 758 mg/L
